Source: US20230212587A1, “Mutant Hydroxyphenylpyruvate Dioxygenase Polypeptide, Encoding Gene Thereof and Use Therefor” (Beijing Dabeinong Biotechnology Co., Ltd., priority 2019, published 2023)

Test system: Arabidopsis thaliana T1 plants
Test: Topramezone tolerance of transgenic Arabidopsis thaliana T1 plants (pesticide damage grade by bleached leaf area, score, resistance evaluation)
Assay type: in vivo
Conditions: HPPDs from different species, 7 DAT; for Classification and statistics of pesticide damage grade Grade 0 / Classification and statistics of pesticide damage grade Grade 1 / Classification and statistics of pesticide damage grade Grade 2 / Classification and statistics of pesticide damage grade Grade 3: number of plants (of 16) in this grade; for Scores: score for pesticide damage 0-100
Summary of the method: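 Herbicide tolerance was judged per plant on a bleaching scale (grade 0 no bleaching to grade 3 fully bleached) 7 DAT. Topramezone doses were 0, 25, 50 and 100 g ai/ha on 18-day-old T1 and wild-type plants.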

| Molecule | Classification and statistics of pesticide damage grade Grade 0 (topramezone 25 g ai/ha (1x)) | Classification and statistics of pesticide damage grade Grade 1 (topramezone 25 g ai/ha (1x)) | Classification and statistics of pesticide damage grade Grade 2 (topramezone 25 g ai/ha (1x)) | Classification and statistics of pesticide damage grade Grade 3 (topramezone 25 g ai/ha (1x)) | Classification and statistics of pesticide damage grade Grade 0 (topramezone 100 g ai/ha (4x)) | Classification and statistics of pesticide damage grade Grade 1 (topramezone 100 g ai/ha (4x)) | Classification and statistics of pesticide damage grade Grade 2 (topramezone 100 g ai/ha (4x)) | Classification and statistics of pesticide damage grade Grade 3 (topramezone 100 g ai/ha (4x)) | Scores (topramezone 25 g ai/ha (1x)) | Scores (topramezone 100 g ai/ha (4x)) | Resistance evaluation (topramezone 25 g ai/ha (1x)) | Resistance evaluation (topramezone 100 g ai/ha (4x)) |
| --- | --- | --- | --- | --- | --- | --- | --- | --- | --- | --- | --- | --- |
| AtHPPD: native Arabidopsis thaliana HPPD, SEQ ID NO: 23 (protein, listed as Arabidopsis thaliana, Arabidopsis thaliana HPPD Amido Acid Sequence) MGHQNAAVSENQNHDDGAASSPGFKLVGFSKFVRKNPKSDKFKVKRFHHIEFWCGDATNVARRFSWGLGMRFSAKSDLSTGNMVHASYLLTSGDLRFLFTAPYSPSLSAGEIKPTTTASIPSFDHGSCRSFFSSHGLGVRAVAIEVEDAESAFSISVANGAIPSSPPIVLNEAVTIAEVKLYGDVVLRYVSYKAEDTEKSEFLPGFERVEDASSFPLDYGIRRLDHAVGNVPELGPALTYVAGFTGFHQFAEFTADDVGTAESGLNSAVLASNDEMVLLPINEPVHGTKRKSQIQTYLEHNEGAGLQHLALMSEDIFRTLREMRKRSSIGGFDFMPSPPPTYYQNLKKRVGDVLSDDQIKECEELGILVDRDDQGTLLQIFTKPLGDRPTIFIEIIQRVGCMMKDEEGKAYQSGGCGGFGKGNFSELFKSIEEYEKTLEAKQLVG | 0 | 0 | 0 | 16 | 0 | 0 | 0 | 16 | 100 | 100 | non-resistant (non-resistant plants (scores 68-100)) | non-resistant (non-resistant plants (scores 68-100)) |
| SbHPPD-02: native Sorghum bicolor HPPD, SEQ ID NO: 63 (protein, Sorghum bicolor; SbHPPD Amino Acid Sequence) MPPTPTTAAATGAAVAAASAEQAAFRLVGHRNFVRVNPRSDRFHTLAFHHVELWCADAASAAGRFSFGLGAPLAARSDLSTGNTAHASLLLRSGALAFLFTAPYAHGADAATASLPSFSAAEARRFAADHGLAVRAVALRVADAEDAFRASVAAGARPAFEPVELGLGFRLAEVELYGDVVLRYVSYPDDADASFLPGFVGVTSPGAADYGLRRFDHIVGNVPELAPAAAYFAGFTGFHEFAEFTAEDVGTTESGLNSMVLANNAENVLLPLNEPVHGTKRRSQIQTYLDHHGGPGVQHMALASDDVLRTLREMQARSAMGGFEFMAPPAPEYYDGVRRRAGDVLTEAQIKECQELGVLVDRDDQGVLLQIFTKPVGDRPTLFLEIIQRIGCMEKDEKGQEYQKGGCGGFGKGNFSQLFKSIEDYEKSLEAKQAAAAQGS | 0 | 0 | 0 | 16 | 0 | 0 | 0 | 16 | 100 | 100 | non-resistant (non-resistant plants (scores 68-100)) | non-resistant (non-resistant plants (scores 68-100)) |
| SbHPPDm-F372A-02: Sorghum bicolor HPPD mutant F372A, SEQ ID NO: 66 (protein, SbHPPDm-F372A Amino Acid Sequence) MPPTPTTAAATGAAVAAASAEQAAFRLVGHRNFVRVNPRSDRFHTLAFHHVELWCADAASAAGRFSFGLGAPLAARSDLSTGNTAHASLLLRSGALAFLFTAPYAHGADAATASLPSFSAAEARRFAADHGLAVRAVALRVADAEDAFRASVAAGARPAFEPVELGLGFRLAEVELYGDVVLRYVSYPDDADASFLPGFVGVTSPGAADYGLRRFDHIVGNVPELAPAAAYFAGFTGFHEFAEFTAEDVGTTESGLNSMVLANNAENVLLPLNEPVHGTKRRSQIQTYLDHHGGPGVQHMALASDDVLRTLREMQARSAMGGFEFMAPPAPEYYDGVRRRAGDVLTEAQIKECQELGVLVDRDDQGVLLQIATKPVGDRPTLFLEIIQRIGCMEKDEKGQEYQKGGCGGFGKGNFSQLFKSIEDYEKSLEAKQAAAAQGS | 16 | 0 | 0 | 0 | 4 | 4 | 8 | 0 | 0 | 42 | highly resistant_ (highly resistant plants (scores 0-15)) | poorly resistant (poorly resistant plants (scores 34-67)) |
| OsHPPD-02: native Oryza sativa HPPD, SEQ ID NO: 69 (protein, listed as Oryza sativa, OsHPPD Amino Acid Sequence) MPPTPTPTATTGAVSAAAAAGENAGFRLVGHRRFVRANPRSDRFQALAFHHVELWCADAASAAGRFAFALGAPLAARSDLSTGNSAHASLLLRSASVAFLFTAPYGGDHGVGADAATTASIPSFSPGAARRFAADHGLAVHAVALRVADAADAFRASVAAGARPAFQPADLGGGFGLAEVELYGDVVLRFVSHPDGADAPFLPGFEGVSNPGAVDYGLRRFDHVVGNVPELAPVAAYISGFTGFHEFAEFTAEDVGTAESGLNSVVLANNAETVLLPLNEPVHGTKRRSQIQTYLDHHGGPGVQHIALASDDVLGTLREMRARSAMGGFEFLAPPPPNYYDGVRRRAGDVLSEEQINECQELGVLVDRDDQGVLLQIFTKPVGDRPTFFLEMIQRIGCMEKDESGQEYQKGGCGGFGKGNFSELFKSIEEYEKSLEAKQAPTVQGS | 0 | 0 | 0 | 16 | 0 | 0 | 0 | 16 | 100 | 100 | non-resistant (non-resistant plants (scores 68-100)) | non-resistant (non-resistant plants (scores 68-100)) |
| OsHPPDm-F372A-02: Oryza sativa HPPD mutant F372A, SEQ ID NO: 72 (protein, OsHPPDm-F372A Amino Acid Sequence) MPPTPTPTATTGAVSAAAAAGENAGFRLVGHRRFVRANPRSDRFQALAFHHVELWCADAASAAGRFAFALGAPLAARSDLSTGNSAHASLLLRSASVAFLFTAPYGGDHGVGADAATTASIPSFSPGAARRFAADHGLAVHAVALRVADAADAFRASVAAGARPAFQPADLGGGFGLAEVELYGDVVLRFVSHPDGADAPFLPGFEGVSNPGAVDYGLRRFDHVVGNVPELAPVAAYISGFTGFHEFAEFTAEDVGTAESGLNSVVLANNAETVLLPLNEPVHGTKRRSQIQTYLDHHGGPGVQHIALASDDVLGTLREMRARSAMGGFEFLAPPPPNYYDGVRRRAGDVLSEEQINECQELGVLVDRDDQGVLLQIATKPVGDRPTFFLEMIQRIGCMEKDESGQEYQKGGCGGFGKGNFSELFKSIEEYEKSLEAKQAPTVQGS | 8 | 8 | 0 | 0 | 0 | 0 | 0 | 16 | 17 | 100 | moderately resistant (moderately resistant plants (scores 16-33)) | non-resistant (non-resistant plants (scores 68-100)) |
| SiHPPDm-F372A-02: Setaria italica HPPD mutant F372A, SEQ ID NO: 60 (protein, SiHPPDm-F372A Amino Acid Sequence) MPPTPTPAAAAPGAAAAPAAGDQAAFRLVGHRGFVRVNPRSDRFHTLSFHHVELWCADATSAAGRFSFGLGAPLAARSDLSTGNSAHASLLLRSGSLAFLFTAPYAHGVDAATASLPSFSAPAARSFAADHGLAVRAIGLRVADAEDAFRASVAAGARPAFKPVELGLGFRLAEVELYGDVVLRYVSYPDAEDAPFLPGFENVNNPGALNYGLRRFDHIVGNVPELAPVAAYVAGFTGFHEFAEFTAEDVGTAESGLNSMVLANNSETVLIPLNEPVHGTKRRSQIQTFLDHNGGPGVQHIALASDDVLRTLREMQARSAMGGFEFMAAPPPDYYEGVRRRAGDVLSEAQIKECQELGVLVDRDDQGVLLQIATKPVGDRQTLFLEIIQRIGCMEKDEQGQEYQKGGCGGFGKGNFSQLFKSIEDYEKSLESKQAAAVQGS | 13 | 2 | 1 | 0 | 6 | 8 | 2 | 0 | 8 | 25 | highly resistant (highly resistant plants (scores 0-15)) | moderately resistant (moderately resistant plants (scores 16-33)) |
